Assay results from the domain aggregation screens of Martell et al. (2025).

Test: soluble fraction after stress (log2 fold change); higher = more stays soluble; pooled small domains, quantitative proteomics
Conditions: stress: 75 degC
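Further: 20 min heating vs room temperature control held 20 min.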

Sequence	soluble fraction (log2)
HMAIGSRLKVTTDATNLNIRSTPSTEGDIVGKAAHHEIVTLVEKTDDSWWKIKTNDGEEGYAYAQYLSPV	-0.031
HMAIIQSNNIFKSQKEIVDEILVELDIPKDKWNFFHMLISSGYKDEFDTNRIYEIIQTNYNMMDR	-0.298
HMAILDTALDVLSMNLKDNYTSFQILRQAAIAGKIAFNLTEKNPLGGVIEVELTGDDLETWIEAATW	0.183
HMAIMISINAKGEVAWNDQIISLDDLAQRFNAAGQQAQKPTVQLRADKESRYDMVAQVMSRASEAGLSDIA	-0.83
HMAIRLIKASREFNVGISTIVEFLEKKGHAIDSDPNSKIPDELYQLIEKEFQTEGSVKKAAKQI	-1.81
HMAITLEVAKKHLEMWLEAESEVAINQSYTIGGKSFTRANLAEIRKQIEYWSNKVAELENLA	-1.04
HMAITYETKVISGVNLRSAPSTSASVYQLIPKGENIHVVQKVNDYWLKVQTKDGKTGYISASSKYTNYIG	-2.7
HMAIWAVFYKNEPFNLKSFNSLTSYPGPKYKKTSFSNPGHALNLAKKLNLTFGTEDFQVVKLTQGTIV	-2.69
HMAKIEVENLEETILENLKANNGFMPYNDKTSPEEIYEVFHVSKKHFKNSLGGLMKKGLIFQNEKGTKL	-0.193
HMAKITERVMGSAALRDYDPNYLPDEVLKALDGYPPFDGYVYKDGILYARVKIGDTFFIIPPI	-2.53
HMAKKDVESTLGGRLRVARVRAGLTQVELARMLGMNSVSLSNVEGGRRGLSMKQLVRVAKILEVPVAYLLG	-2.36
HMAKMPSIIIMKDGVIRTSELEQIERDENWLNEEMKKQHIDNPEDVFLAEFWDGKVNFILQDGKIK	-0.0894
HMAKNDSGLNNHTFNTIRDALQKALTDGPQEAKKLTENLPFPADKIITVIRYLADHDEHFSLEDGIISLT	0.609
HMAKNIEVPNLVGSTISVARNDLKQLGLHVIVRDSVWSEDKKIDTILEQFPEPGKKLKPEGVVQVVVSI	-0.909
HMAKNSVLTIELWNSTAFKWRKDTEPYSESMSVDFNRSVRLTDGISIMFSKFGFVPGIQYLIPLQT	-0.534
HMAKQQTTTTAHVVTTGETLYSIAQKNGISVEELKKSNNITSDKLRPGQTLHITKVSKTSSTAK	0.87
HMAKRPRFEDVIKEINTEIQKRKGKWNLTILSWMDFDDVAQVIRIHIYRKWHLYDPSKPLGPWLNR	-0.339
HMAKSETAKIKATPYGWLRVRDTPSLNGAEIARVNSGDEYKVLEKETGWIKIKVSDTVEGWVSDAYIELS	-0.21
HMAKSKYETHVLPNLDKIIKWAKAGATAKEIAANLHIAYSTFRKYLDEGQEGDERYAALSAAFAQA	-0.0762
HMALDLNEDEKLLVELIEKAGGTAGLGELKEASGLSGKKWDKTTKNLSKEGLIKVEKNESGLWVHLT	0.0861
HMALDLPVKRVKGKEYYYYKVKKGESLYGISKHLGLPLDSIVKSNPSVADGVRKGDMLLFPLEEYT	-0.702
HMALKQADFDFIRQMIQQRAAIVLDDNKHYFVESRLGPVVEETGSKSLDQLIDQLRSSSNSLLQQKVTEAI	-0.372
HMALLSDEERIATVFAARLGGYSHQEIYKLLQDRFGPSLPAAYSEKSVLTDLQTALSQVPSL	-0.814
HMALPEHIEPFLRGLGQALAEGDSYEDVQERLLRAYPYLDSTEFQTALARVIFISDLWGRLN	-1.85
HMALPPPELRGATGEAVTALRPAGIALIQGKRYDVLAEGGEWIAAGAAVRVRDIRNGHLIVSDA	-0.268
HMALRFMAYGRINGTNVHFRTGASASTASLGRYSRGTEFGVYDKIGGWYRVRLLSTGQEGYVYSRYLTLTG	-2.53

Sequence	soluble fraction (log2)
HMALSGTVQNFAGGIMILIFRPFKTGDYIEALGYFGKVSEVNIVSTKLRTFDNKTIILPNGALSNGNIQNY	-0.772
HMALSSQQIKDMQSWYGTKADGIWGSKSTTAAGGRDAGAAYSLYSSNKGRYSSYTDYMSYGGG	0.341
HMALSTRERMSFVLEVLKEKEFIPFVDLFSPEEGRAGVVVTFLALMELMKDSLIEIVQTKNFGEIHVRARL	-0.316
HMALTQEQLGQRLQDARKSVALTQQEVAEDLGLSRESLAQIEAGSRSVNSLEIVRLARLYGRSLSSILLE	-0.893
HMALYSEQVSEIEKALMSLPPKYQLVMLLLYAEDLKYEQIAEILDEPIGTVKTKIHRARKILKERF	-0.147
HMAMDSGELEAIVDRLISEHPDDWAALTAGDDRERKKKSGFFVGEVMKATRGQADGRAVIELLASRSA	-0.0771
HMAMDYTVVHSDRRTIAIQIQRDGRVVVRAPYAATAEDIRRVVDSHRDWVEKTVRRQQEQLAAS	-0.985
HMAMNITQRHQEILAVIKQEKHITVSEISKLLGVSEVTIRKDFNYLEEKNLIYRHHGGASLNN	-2.78
HMAMPQPVARALHRLGQDISAARRMRRLSQEDLAQRIGTSLSTVRRMEDGYPGTALHTFLRALHML	-0.552
HMAMSDFDALSNRISTLSQGRASAVRMKDGIVSLVLDIGGLSAEERKAMTAAIEGEGRGYPSVTQVRILET	-0.15
HMANAGKFDSDMGEKINFPGNRVSLTPSELEAARELAAIMGDRFFSQLIPTTSKVTVTEMLQSLK	0.745
HMANGTVKWFNTTKGFGFIAPETGGKDVFVHISAVERSGLTGLADDQKVTFDVEAGRDGRESAVNLAL	0.0695
HMANKTVPNVSGKTVAEARAIIENQSLQVGEEKEEYSDSVAEGYIIRTNPTAGSQKKEQSKIDLVVSKG	0.128
HMANLDSLIKKVGQYAKDKQSISVDGIKKDLSIDKDMVKEALAELLKIGVVDKPDEAGQYKVIM	0.51
HMANPMFAEIKKVQKQLNEMGYQAGPADGLWGNKTENAVKLLLSDNNLKWDGTFDQNEIKIIEEIFLSND	-0.241
HMANPRLEYFLSNITPDWNEFSPELKNQLLIENADPYKLEQYILQVSPDMYIEEQNAPGTVRQMAGDITG	0.137
HMANSANARKSLVSKLIAGGKIASQSDLVKALKKQGIVVTQGTASRDLEDIGAIRVRNSEGEIVYALT	0.0457
HMANSDEEVLNKISTKAPTFNELINKIKEFDDTKEINDIWLDVYRYYITDEEYKEIAKKVITGLTYTNQ	-0.386
HMANSLLVTAQAGGQKLFNFLKRSLHAENNEIHRWIRTGQVRINKKRTKAFDIVHENDEIRIPPFALNR	-0.444
HMANSREIPKLAGIEQEEAVKQLLDLDLKPVIEEITDDDTDAGDVVRTDPAAGEHVAVDTEITVFISIG	-0.987
HMANVQLAKNLKTLRKKYNYTQQDVSTFLNITRQAYSHYEQALREPDLNTLVHLSRFYQVTLDELI	-4.33
HMANYHDIAADLRSKINHGFYEEEKKLPKQSELAADYQTSRVTIQKALNILQMEGIIYGKKGTGTFIRDSY	-0.32
HMANYTVNAYNNGGTGGSVNMRSGPSTNDGIVVRVPHGATVTGTKSGTWSYMTYNTYTGYMMSVYLDEQS	-1.57
HMAPAPYLVKVTANKLNIRSGPGTNYKIQGAITDKGTYTIVDTQGRWGKLKSGAGWIYLNYTKK	-1.98
HMAPASADQLIDQLNEKVKAKDDKGVAALLTAAQTKMAELAQKDPKEAQAYVAKLQQWMQSNSENIKAALK	0.439
HMAPAYELTEEETKIIEILKANENIDLNELKSQAALSGKKWDKSMKNLAKYNLTKVTVDGDAKTVAYLA	0.164

Sequence	soluble fraction (log2)
HMAPELSGEKLWDAQDVAMFLRVKPTTVWSYVSRDGFPAPVSQAGRAGMWSEPLVVQWYLSRPG	0.154
HMAPEPFILSVDADGKYYIDDLEKTKQEILIYATALYQEKPTTDFLVRGDKSAAYNDVLQAMVVLKE	0.325
HMAPETALQILEQIQINPKVTMTDLANLTGYSRRWVAQTMKQLQELNVIKRVGSTKTGYWEIIA	-0.576
HMAPGSKAEIPEDLMKVINKDPKMKAFVATLNKANIMAISFRLSTAKKPETRERRFNLILETLKRGEKF	-3.16
HMAPKVTLNETETAIFEKMQQEKQLLLSELRTHFDISNKLWDTSIKTLTKNQLLTVSKEADLLWIKL	-1.34
HMAPLAVIFPEPWRGMIAPEKLEGLTQALSLNPRPGYQHDPTRRYGVSLDGLDVRFTIDGDTLTVVEVVT	-1.64
HMAPNKLQQQEVWTKALPLLQQMIMTIRQIDAAGGDSSPERELLEETAARFDETLDVERFLP	-0.339
HMAPPPLAGAREALREQIRRGSLSARRGFDAYADALGLPAGTRGAHPIFAALQRLDYPQALRLLDQEPT	-0.0614
HMAPQVKIPNLVDVSQRQAEAILNSYGLKVGHLIYKPDLAKDAVLGFMFNGRSLKAGDELAKGSSIDLILG	-0.277
HMAPRDKADKYVAAGIAEELVPILQKVGYYLVTDLKDVKAQKIQQQIGEIIKKYKLDIEKPSVQDIEGWN	-0.192
HMAQDIEQLEKAVSFYTRMDPAAAALSITNLDQKTAVNILMRMKDKQASAVLESMTAERSSELIDSIARK	0.0292
HMAQELPYEKVTMNGKMFYVYHVKAGEGLYLISRTFSVNADEILKFNPSIENGLKSGQVLYIPIK	-1.23
HMAQISDESALYDLVKSVLDANPQSIADYKAGRDRALGFLMGQAMKLSKGKANPPVINKILKEMLDK	0.161
HMAQKQLYIAGTDYTKNSTSQLVLAYFPAKPSSIKIFFDGIYQNKDKWSLFGKTIIFGLPISSNAVEVHYE	-4.34
HMAQLPADLSKVKSSQISDQQLTQIAQQAKNSGQSEQAVLQELKQRGLPDTEIQALGARISGLMQ	0.211
HMAQLVVTVDKLNKRTAIPVTLSDKSSNDSVVEKGFRFEGFPFVNTATNGKKWYKDREGFFYWAGGLMEEA	0.0903
HMAQMDDPEMVLHIYNKMIQQRLFDTAVGYSYLKDLQEYLQSIPFIRKEDIFPIPVQHPQVEESLRKAK	-0.689
HMAQTSAELIIEYLKRNDGFMELTDKSPADEIYETFGISKKNFKMAVGSLYKNRVIEIGQNGIRLVE	-0.426
HMAQTTKWREIHKVKRKETIFGIARDNGLTVDELIEANPEMTKPGYELKKGDFIYIPFPSKNIDTNAGTQT	0.498
HMARAESYGDIARLEQLLDEHANIAALDPGKLPAVRQQIWTLMRAARMDHDLGLAERPEDDSFDDMLLHV	0.208
HMARAPIYPDGLTQREVEVLSLVAAGKTDREIAEELFIALRTVTTHVGNILNKIGAANRTEAAGYATRQGL	-1.7
HMARAVSPLEAIPGVGPRRRQQLLKQLGGMQEVARAGVEDLSRVPGISRALAQQIYDAFHGD	-0.287
HMARDPWDVLGVAKTATNDEIKRAFKRQAMMTHPDKQGGSEERFKEVNEAYSHIKDEQSRAKYQNSQ	0.158
HMARDSYNGVQRTISTLLGQGNYDRAYDVAVGARGQMSKQQWSDVAKRIYEVSGIKIDDSVKY	-0.113
HMARRSRADAVRNREALIDAAKAAFTEAGPDVSLEEIARRAGVGIGTLYRHFPTRDAVIEAVYR	-0.185
